Test results reported in patent US20260258115A1 (MAPP BIOPHARMACEUTICAL, published 2026).

B1: ADI-41236 (antibody, V domains shown)
VH: QVQLVQSGGGLVKPGGSLRLSCTASGFTFSDYYMDWIRQAPGKGLEWVSSISSSSTYTKYADSVKGRFTISRDNAKNSLFLQMNSLRAEDTAVYYCVRNLGPYCSSTSCFVFDYWGQGTLVTVSS
VL: QSVLTQPPSVSGAPGQRVSISCTGSSSNIGAGYEVHWYKQVPGTAPRLLMYDNTNRPSGVPDRVSGSKSGTSASLAITGLQAEDEADYYCQSYDNSLNKSVFGGGTKVTVL
B2: ADI-41235 (antibody, V domains shown)
VH: QVQLQQWGAGLLKPSETLSLTCGVYGESFSGHYWSWIRQPPGKGLEWMGEIHHSGTTNYNPSLKSRVTISVDTSKNQFSLKLNSVTAADTAVYYCARNPAEDILTGYSPPFHYYYMDVWGKGTTVTVSS
VL: QSVLTQPPSVSGAPGQRVTISCTGSSSNIGAGYDVHWYQQIPGTAPKLLIHSNNNRPSGVPDRFSGSKSGTSASLAITGLQAEDEADYYCQSYDSSLSVVFGGGTKLTVL
B3: ADI-41237 (antibody, V domains shown)
VH: EVQLVESGGGLVKPGGSLRLSCAASGFTFSDYYMNWIRQAPGKGLEWVSDISPSSSYTNYADSVKGRFTISRDNAKNSLYLQMNSLRAEDTAMYYCARRGSCTGGVCSFDYWGQGTLVTVSS
VL: QPGLTQPPSVSGAPGQRVTISCTGSSSNIGAGYDVNWYQQLPGTAPKLLIYDNSNRPSGVPDRFSGSKSGTSASLAITGLQAEDEADFYCQSYDSSLSGFVFGTGTKVTVL
B4: ADI-41595 (antibody, V domains shown)
VH: QVQLVQSGGGVVQPGGSLRLSCAASGFTFSDYGMHWVRQAPGKGLEWVAVISDGGSNQYSADSVRGRFTISRDNSKNTLYLQMNSLRPEDTAVYYCAKARIAARAIFDYWGQGTLVTVSS
VL: DIQLTQSPSSLSASVGERITITCQASRDVRIYLNWYQHKPGKAPKLLIYDASNLETGVPSRYSGSGSGTDFTFTISSLQPEDIATYFCQQYDLLPPTFGVGTKVEIK
B5: ADI-36675 (antibody, V domains shown)
VH: EVQLVESGGGLVQPGGSLRLSCAASGFTFNRFAMSWVRQAPGKGLEWVSGISGSGGSTLYADSVKGRFTISRDNSKNTLYLQINSLRVEDTAVYYCASRSSYDDVWNGYVDWDWGFDFYYYGMDVWGQGTTVTVSS
VL: QAVVTQEPSMSAAPGQKVTISCSGGDSNIRNNYVFWYQQLPGTAPKLLIYDNTKRPSGIPGRFSGSKSGASATLDITGLQTGDEADYYCGTWDSSLSALVFGGGTQLTVL
B6: ADI-41783 (antibody, V domains shown)
VH: QVQLVQSGDEVKKPGASVKVSCKSSGYTFTHFGVSWVRQAPGQGLEWMGWISGYNGNTNYAQKLQGRVTMTTDTSTTTAYMELTSLRSDDTAVYYCARDSPAGTVTLDFWGQGTTVTVSS
VL: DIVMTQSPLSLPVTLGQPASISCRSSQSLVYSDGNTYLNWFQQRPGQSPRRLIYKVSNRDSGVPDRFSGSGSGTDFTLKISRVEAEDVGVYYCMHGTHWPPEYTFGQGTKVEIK
B7: ADI-41788 (antibody, V domains shown)
VH: QVQLVQSGAEVKKPGASVKVSCQASGYTLTTYDINWVRQAPGQGLEWMGWMNANSGNTGYAQKFQGRVTMTRNISISTAYMELSSLGPEDTAVYYCARGFYKWNDWSFDYWGQGTLVTVSS
VL: QSVLTQPPSVSVAPGQTARITCGGNNIGSKSVHWYQQKPGQAPVLVVYDDSDRPSGIPERFSGSNSGNTAPLTISRVEAGDEADYYCQVWDGDSAHHAVFGGGTQLTVL
B8: ADI-41597 (antibody, V domains shown)
VH: QVQLQESGPGLVKPSETLSLTCTVSGASVSSNNYYWSWIRQPPGKGLEWIGYIYYSGSTNYNASLKSRVTISVDTSKNQFSLKLSSVTAADTALYYCAGEHIFGVASPFEAPFDYWGQGTMVTVSS
VL: SSELSQPPSVSVAPGKTARITCGGNNIGIKSVHWYQQKPGQAPVLVIYSDSDRPSGIPERFSGSNSGNTATLTITRVEAGDEADYYCQVWDSSSDHFVFGIGTKVTVL
B9: ADI-41800 (antibody, V domains shown)
VH: QVQLVQSGAEVKKPGASVKVSCKASGYTFTDYYMHWVRQAPGQGLEWLAWINPYTGGTNYAQKFQGRVTLTRDTSVSTTYMEVTRLRSDDTAVYYCARGESFHHWGQGTLVTVSS
VL: QSALTQPASVSGSPGQSITISCTGTSSDIGGYDYVSWYQQHPGKVPKLMIYEVSTRPSGVSIRFSGSKSGNTASLTISGLQAEDEADYYCSSYTRSTITSVVFGGGTKLTVL
B10: ADI-41571 (antibody, V domains shown)
VH: EVQLLESGGGLVKPGGSLRLSCEASGFPFNSYHMNWIRQSPGKGLEWVSYITGGSSFSNYADSVKGRFTISRDNAKNSLYLQMNSLRAEDTAVYYCARTTLDCTSTSCHYRFDYWGQGTLVTVSS
VL: QSVLTQPPSVSGAPGQRITISCNGSNSNIGAGYDVHWYQQLPGKAPKLLIYSNNNRPSGVPDRFSGSKSGTSASLAITGLQGEDEADYYCQSHDTRLSGNVVFGGGTKLTVL
B11: ADI-41810 (antibody, V domains shown)
VH: QVQLVQSGGGVVQPGRSLRLSCAASGFNFHNYAMHWVRQAPGKGLEWVAVISYDGGNKHYADSVKGRFTISRDNSKNTLYLQMNSLRPDDTAVYYCARGHSDWRGDYFDFWGQGTLVTVSS
VL: DIQLTQSPATLSVSPGERAILSCRASQNVGTNLAWYQQKPGQAPRLLIYDASTRATGIPARFSGSGAGTDFTLTISGLQSEDFAVYYCQQYINWPPYTFGQGTKLEIK
B12: ADI-41563 (antibody, V domains shown)
VH: QVQLVESGPGLVKPSETLSLTCTVSDDSITNNFWTWIRQPPGKGLEWIGYIYYSGSTNYNPSLKSRITMSVDLSKNQFSLKLSSVTAADTAVYYCARLTSGGVDYWGQGTLVTVSS
VL: QSVLTQPPSLSGAPGQRVTISCTGSSSNIGADYHVHWYQQLPGTAPKLLIYQNTNRPSGVPDRFSASKSGTSVSLAITGLQAEDEADYYCQSYDSSLSAWVFGGGTKLTVL
B13: ADI-41594 (antibody, V domains shown)
VH: EVQLVESGGGLVKPGGSLRLSCAASGFSFSSYYMNWVRQAPGKGLEWVSSISPSSSYTNYADSVKGRFTISRDNAKDSLYLQMNSLRAEDTAVYYCARDGLLGITIFGVVQDYWGQGTLVTVSS
VL: QSVVTQPPSVSGAPGQRVTISCTGSSSNIGAGYDVHWYQQLPGTAPKLLIYGNTNRPSGVPDRFSASKSGTSASLAITGLQAEDEADYYCQSYDSSLSVVFGGGTKLTVL
B14: ADI-41568 (antibody, V domains shown)
VH: QVQLQQWGARLLKPSETLSLTCAVYGGSFSGYYWSWIRQSPGKGLEWIGEINHSGSTNYNPSLKSRVTISRDTSKKQFSLKVSSVTAADTAVYYCARDPPIRCNGDSCKSDQYRYGMDVWGQGTTVTVSS
VL: QPGLTQPPSVSVSPGQTARITCSGDALPKQYAYWYQQKPGQAPVLVIHKDNERPSGIPERFSGSSSGTTVTLTISGVQAEDEADYYCQSADTSGSYRLFGGGTKLTVL
B15: ADI-41772 (antibody, V domains shown)
VH: EVQLLESGGGLVEPGTSLRLSCEASGFTFSDYYMSWIRQAPGKGPEWVADISSRGVVTYYADSVKGRFTISRDNAKNSLYLQLNSLGAEDTAVYYCARLREVTYIMPTIDYFDYWGQGTLVTVSS
VL: SYELTQPPSVSVSPGQTARITCSGDAFVKKYAYWYHQKSGQAPVVVIYEDTKRPSGIPERFSGSSSGTTATLTISGAQVEDEGDYYCYSRDFSGDHGVFGGGTKLTVL
B16: ADI-41598 (antibody, V domains shown)
VH: EVQLVESGPGLVKPSETLSLTCTVSGGSITPYYWSWIRQPPGKGLEWIGNISYSGSTTYNPSLKSRVTISVDRSKDQFSLRLRSVTAADTAVYYCARVVTLVLGVSLNDAFDIWGQGTMVTVSS
VL: DIQMTQSPSSLSASVGDRVTITCRASQSISRYLNWYQHKPGKAPILLIYAATTLESGVPPRFSGSGSGTDFSLTISSLQPEDFATYYCQQSYSVPLTFGGGTKLEIK
B17: ADI-41792 (antibody, V domains shown)
VH: QVQLVQSGGGLVKHGGSLRLSCAASGFTFSSYSMNWVRQAPGKGLEWASSISSSSSYIYYADSVKGRFTISRDNAKNSLYLQMNSLRAEDTAVYYCARTEYSSSSPIFDYWGQGTLVTVSS
VL: QSVLTQPPSVSGAPGQRVTISCTGSSSNIGAGYDVHWYQQLPGTAPKLLTYGNSNRPSGVPDRFSGSKSGTSASLAITGLQAEDEADYYCQSYDSSLSGSVFGGGTKVTVL
B18: ADI-41585 (antibody, V domains shown)
VH: EVQLLESGGGLVKPGGSLRLSCAASGFTFADYYMSWIRQAPGKGLEWVSYISGGSSFTNYADSVKGRFTISRDNAKNSLYLQMNSLRADDTAVYYCARGISPALGGGEYFQDWGQGTLVTVSS
VL: QPVLTQPPSVSGAPGQRVTISCTGSSSNIGAGYDVHWYQHLPGTAPKLLIYGNSNRPSGVPDRFSGSKSSTSASLAITGLQAEDEADYYCQSYDSSLGGYVFGTGTKVTVL
B19: ADI-41812 (antibody, V domains shown)
VH: EVQLVESGGGLVKPGGSLRLSCAASGFTFSSYSMNWVRQAPGKGLEWVSSISAGSSYTDYAESVKGRFTISRDNAKNSLYLKMNSLRAEDTAVYYCARDPGYCSSNSCTVAMDVWGQGTTVTVSS
VL: SYELTQPPSVSGAPGQRVTISCTGSSSNIGAGYDVHWYQQLPGTAPKLLIYGNNNRPSGVPDRFSGSKSGTSASLAITGLQAEDEADYYCQSYDRTLVIFGGGTKLTVL
B20: ADI-41589 (antibody, V domains shown)
VH: EVQLLESGGGLVQPGGSLRLSCAASGFTFNFFALTWVRQAPGKGLEWVSAISGSGESTYYADSVKGRFTISRDNSKNTLYLQMNSLRAEDTAVYYCAKFARSGDYASFFDYWGQGTLVTVSS
VL: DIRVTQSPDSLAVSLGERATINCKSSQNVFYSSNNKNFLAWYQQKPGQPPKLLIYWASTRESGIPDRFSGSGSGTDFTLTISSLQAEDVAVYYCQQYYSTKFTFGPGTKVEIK
B21: ADI-41599 (antibody, V domains shown)
VH: EVQLLESGGGLVQPGGSLRLSCAASGFIFSNYEMNWVRQAPGKGLEWISHITPTGNSIYYADSVKGRFTISRDNAKNAQYLQMHSLRPDDTAIYYCARGEDPIAATGGFDSWGQGTLVTVSS
VL: EIVLTQSPSSLSASVGDRVTIPRRSSQNVDKFLHWYQQRPGKAPKLLIYAAFSLQSGVPSRFSGSGSGTDFTLTISSLQPEDFATYYCQQSYSTPFTFGQGTKVEIK
B22: ADI-41584 (antibody, V domains shown)
VH: QVQLVESGAEVKKPGASVKVSCKASGYTFTDYYIHWVRQAPGQGLEWVGRINPNSGYINYAQKFQGRLTMTRDTSISTAYLELSSLRSDDTAVYYCTRLPLLEPLNFFDYWGQGTLVTVSS
VL: QSVVTQPPSVSGAPGQRVTISCTGSSSNIGAGYDVHWYQQLPGTAPKVLIYGNNNRPSGVPDRFSGSKSGTSASLAITGLQAEDEADYYCQSFDSSLSSSYVFGTGTKLTVL

Each binder was assayed against RSV F on RSV-A2 virus (Respiratory syncytial virus (RSV-A2)) (assay: cell-based or functional assay).

| Binder | Neutralization IC50 (RSV subtype A) [µg/mL] |
| --- | --- |
| B1 | > 25 |
| B2 | > 25 |
| B3 | 0.04 |

What follows are binders tested against RSV F on RSV-A2 virus (Respiratory syncytial virus, RSV-A2, UniProt P03420 26-574) (assay: cell-based or functional assay).

| Binder | Neutralization IC50 (RSV subtype A) [µg/mL] |
| --- | --- |
| B4 | 0.0475 |
| B5 | 0.006 |
| B6 | 0.25 |
| B7 | 0.47 |
| B8 | 0.173 |
| B9 | > 25 |
| B10 | 0.0315 |
| B11 | > 25 |
| B12 | 0.0323 |
| B13 | 0.0406 |
| B14 | > 25 |
| B15 | 0.04 |
| B16 | 0.174 |
| B17 | > 25 |
| B18 | 0.0641 |
| B19 | 0.17 |
| B20 | > 25 |
| B21 | 0.637 |
| B22 | > 25 |
